This passage reports stoichiometry N results from article PMC6403000.

Holding throughout (assay): SEC
In general terms: In gel filtration, larger molecules generally elute earlier.

Test [1] has as its target CtHsp104 lacking the NTD (residues 153-882) (Calcarisporiella thermophila).
The target of test [2] is CtHsp104 lacking the NTD with mutated Walker B motifs (E275Q:E679Q) (Calcarisporiella thermophila).
The target in test [3] is CtHsp104 lacking the NTD with mutated arginine fingers (R328M/R757M) (Calcarisporiella thermophila).
Test [4] addresses CtHsp104 lacking the NTD and the CTT (residues 153-864) (Calcarisporiella thermophila).

In the case of “CtHsp104 lacking the NTD (residues 153-882) (domain or fragment)”, the stoichiometry N in test [1] was 6.

Consider “CtHsp104 lacking the NTD with mutated Walker B motifs (E275Q:E679Q) (domain or fragment)”, for which the stoichiometry N in test [2] is 6. Turning to “CtHsp104 lacking the NTD with mutated arginine fingers (R328M/R757M) (domain or fragment)”, the stoichiometry N in test [3] is 6. “CtHsp104 lacking the NTD and the CTT (residues 153-864) (domain or fragment)”: the stoichiometry N in test [4] is 6.

What is called stoichiometry N is a count of units in the complex or per binding partner.
